Test results published in US20110046043A1 (NEW YORK UNIVERSITY, published 2011).
*1 amine or outer side, *2 acyl side, *3 side chain or, on linkers, in order; H or OH if unused. Where no end group is shown, it is not given here. [ ]: non-standard residue; d: D form. Suc = O=C(CCC(=O)[*:2])[*:1]

Key:
[1] = biological target: HIV-1 HXB2 envelope (gp41) expressed on CHO[HIVe] (clone 7d2) cells (HIV-1 (HXB2), UniProt P04578 512-856); test: cell-based or functional assay
[2] = biological target: T1, IZN17 (peptide 11, AcIKKEIEAIKKEQEAIKKKIEAIEKLLQLTVWGIKQLQARIL-NH2) (N-terminal acetyl (Ac); C-terminal amide (NH2)); test: fluorescence polarization competition, displacement of peptide 12 from IZN17; upper limit of the assay
T1 construct: also called peptide IZN17; 1ZN17
T1 chain: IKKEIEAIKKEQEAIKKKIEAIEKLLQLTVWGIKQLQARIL

[3] = biological target: T1, IZN17 (peptide 11, …); test: fluorescence polarization competition, displacement of peptide 12 from IZN17; value inexact because the peptide aggregates
[4] = biological target: T1, IZN17 (peptide 11, …); test: fluorescence polarization competitive binding assay with peptide 12 as probe
[5] = biological target: T1, IZN17 (peptide 11, …); test: fluorescence polarization competition, displacement of peptide 12 from IZN17; compared with peptide 1
[6] = biological target: T1, IZN17 (peptide 11, …); test: fluorescence polarization competition, displacement of peptide 12 from IZN17
[7] = biological target: T1, IZN17 (peptide 11, …); test: fluorescence polarization, direct saturation binding of fluorescein-labeled peptide 12 to IZN17, PBS, 25° C.

Chain of HIV-1 HXB2 envelope (gp41) expressed on CHO[HIVe] (clone 7d2) cells (P04578 512-856): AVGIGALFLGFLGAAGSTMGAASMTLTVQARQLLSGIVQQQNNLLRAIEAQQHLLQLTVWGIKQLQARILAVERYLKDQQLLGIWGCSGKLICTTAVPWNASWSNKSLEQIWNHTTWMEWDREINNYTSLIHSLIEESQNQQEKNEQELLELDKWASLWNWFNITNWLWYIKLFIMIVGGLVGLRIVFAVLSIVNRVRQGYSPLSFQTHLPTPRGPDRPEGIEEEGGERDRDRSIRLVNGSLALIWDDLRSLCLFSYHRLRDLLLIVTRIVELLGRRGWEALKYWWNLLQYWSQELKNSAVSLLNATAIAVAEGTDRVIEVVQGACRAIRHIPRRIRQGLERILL

B1: HBS α-helix 8 (XNEMTWEEWDKKIEEYT) (peptide)
peptide: XNEMTWEEWDKKIEEYT
modifications: X at position 1 is a pentenoic acid residue; N-terminal hydrogen bond surrogate (carbon-carbon bond by ring-closing metathesis in place of an i and i+4 hydrogen bond)
notes: also called peptide 8
inhibition of gp41-mediated cell-cell fusion (syncytium formation, β-galactosidase activity) [1]: > 200 | Kd [2]: < 5 µM

B2: Peptide 1 (AcMTWMEWDREINNYT-NH2), 14-residue C-peptide derived from gp41 (peptide)
peptide: Ac-MTWMEWDREINNYT-NH2
notes: Unconstrained parent peptide; also called unconstrained C-peptide
Kd [3]: 37 µM

B3: HBS α-helix 4 (XAAAWEEWDKKI) (peptide)
peptide: XAAAWEEWDKKI
modifications: X at position 1 is a pentenoic acid residue; N-terminal hydrogen bond surrogate (carbon-carbon bond by ring-closing metathesis in place of an i and i+4 hydrogen bond)
notes: Trp/Trp/Ile motif lies outside of the constraint; also called peptide 4
inhibition of gp41-mediated cell-cell fusion (syncytium formation, β-galactosidase activity) [1]: > 200 | binding result [4]: no binding

B4: HBS α-helix 2 (XMTWMEWDREINNYT) (peptide)
peptide: [Pentenoic acid]MTWMEWDREINNYT
modifications: staple (positions not given here); not fully specified (C-terminus, bridges)
notes: HBS-constrained form of peptide 1; made on Rink amide resin; also called peptide 2
inhibition of gp41-mediated cell-cell fusion (syncytium formation, β-galactosidase activity) [1]: > 200 | binding result [5]: binds

B5: HBS α-helix 6 (XMTWEEWDKKIEEYT) (peptide)
peptide: XMTWEEWDKKIEEYT
modifications: X at position 1 is a pentenoic acid residue; N-terminal hydrogen bond surrogate (carbon-carbon bond by ring-closing metathesis in place of an i and i+4 hydrogen bond)
notes: also called peptide 6
inhibition of gp41-mediated cell-cell fusion (syncytium formation, β-galactosidase activity) [1]: > 200 | binding result [6]: binds

B6: HBS α-helix 7 (XEMAWEEWDKKIEEYT) (peptide)
peptide: XEMAWEEWDKKIEEYT
modifications: X at position 1 is a pentenoic acid residue; N-terminal hydrogen bond surrogate (carbon-carbon bond by ring-closing metathesis in place of an i and i+4 hydrogen bond)
notes: Thr-627 replaced with alanine; a glutamic acid added at the N-terminus; also called peptide 7
inhibition of gp41-mediated cell-cell fusion (syncytium formation, β-galactosidase activity) [1]: > 200 | fold lower affinity than HBS α-helix 6 [6]: 20 fold

B7: Peptide 10 (AcMTWEEWDKKIEEYTKKI-NH2) (peptide)
peptide: Ac-MTWEEWDKKIEEYTKKI-NH2
notes: Unconstrained counterpart of HBS α-helix 9; also called unconstrained peptide 10
binding result [6]: binds

B8: Fluorescein-labeled peptide 12 (suc-MTWMEWDREINNYTC^Flu) (peptide)
peptide: Suc-MTWMEWDREINNYTC(fluorescein)-NH2
notes: also called fluorescent probe 12; fluorescein-labeled C-peptide derivative
Kd [7]: 24 µM

B9: HBS α-helix 3 (XWAAWDKKI) (peptide)
peptide: XWAAWDKKI
modifications: X at position 1 is a pentenoic acid residue; N-terminal hydrogen bond surrogate (carbon-carbon bond by ring-closing metathesis in place of an i and i+4 hydrogen bond)
notes: Shortest designed peptide with the Trp/Trp/Ile motif; also called peptide 3
inhibition of gp41-mediated cell-cell fusion (syncytium formation, β-galactosidase activity) [1]: > 200 | binding result [4]: no binding

B10: HBS α-helix 5 (XWAAWDREINNYT) (peptide)
peptide: XWAAWDREINNYT
modifications: X at position 1 is a pentenoic acid residue; N-terminal hydrogen bond surrogate (carbon-carbon bond by ring-closing metathesis in place of an i and i+4 hydrogen bond)
notes: Similar to 1 and 2 but missing N-terminal Met-626 and Thr-627; also called peptide 5
inhibition of gp41-mediated cell-cell fusion (syncytium formation, β-galactosidase activity) [1]: > 200 | binding result [4]: no binding

B11: HBS α-helix 9 (XMTWEEWDKKIEEYTKKI) (peptide)
peptide: XMTWEEWDKKIEEYTKKI
modifications: X at position 1 is a pentenoic acid residue; internally-constrained α-helical region (hydrogen bond surrogate, carbon-carbon bond by ring-closing metathesis) spanning residues 1 through 4 of SEQ ID NO: 9
notes: also called peptide 9
inhibition of gp41-mediated cell-cell fusion (syncytium formation, β-galactosidase activity), EC50 [1]: 43 µM | Kd [2]: < 5 µM
